Among the data in PMC5624926 (2017) are Kd values, retold here.

For experiment [1], the target named is T1, CD22_(20–687) (human, UniProt P20273 20-687, N-linked glycans; glycoform not stated). Description: BLI.
The target in experiment [2] is T1, CD22_(20–687). As to the kind of experiment: BLI. The source holds these as a separate data set.

Substitutions are numbered along the chain they refer to. Numbers in names are those of the source. Read-outs that look alike come from different tables or passages of the source.

B1: epratuzumab Y(L27D)A (antibody, V domains shown)
VH: QVQLVQSGAEVKKPGSSVKVSCKASGYTFTSYWLHWVRQAPGQGLEWIGYINPRNDYTEYNQNFKDKATITADESTNTAYMELSSLRSEDTAFYFCARRDITTFYWGQGTTVTVSS
VL: DIQLTQSPSSLSASVGDRVTMSCKSSQSVLASANHKNYLAWYQQKPGKAPKLLIYWASTRESGVPSRFSGSGSGTDFTLTISSLQPEDIATYYCHQYLSSWTFGGGTKLEIKR
In turn, B1 registered a dissociation constant (Kd) in experiment [1] of 1700 nM.

B2: epratuzumab Fab (Fab, V domains shown)
VH: B1 VH
VL: DIQLTQSPSSLSASVGDRVTMSCKSSQSVLYSANHKNYLAWYQQKPGKAPKLLIYWASTRESGVPSRFSGSGSGTDFTLTISSLQPEDIATYYCHQYLSSWTFGGGTKLEIK
With B2, the Kd in experiment [2] was 120 nM.

B3: epratuzumab N(H52)A (antibody, V domains shown)
VH: B1 VH with N52A
VL: B1 VL with A31Y
The molecule B3 returned a Kd in experiment [1] of 260 nM.
